According to EP4707304A1 (Axcynsis Therapeutics Pte. Ltd., dated 2024):

T1: VLP-hCLDN6 (human) (UniProt P56747)
T1 sequence: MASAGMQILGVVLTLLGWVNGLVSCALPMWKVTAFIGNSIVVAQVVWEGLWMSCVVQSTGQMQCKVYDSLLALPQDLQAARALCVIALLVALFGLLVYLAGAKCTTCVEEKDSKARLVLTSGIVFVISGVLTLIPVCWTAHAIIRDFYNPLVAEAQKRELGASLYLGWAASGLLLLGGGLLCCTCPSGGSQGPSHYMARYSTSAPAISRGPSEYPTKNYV


Legend:
VLP-hCLDN6 (human) [1] = molecular target: T1, VLP-hCLDN6 (human); assay: ELISA, coated VLP-hCLDN6, 100 ul antibody sample, HRP-Protein A
VLP-hCLDN6 (human) [2] = molecular target: T1, VLP-hCLDN6 (human); assay: ELISA, coated VLP-hCLDN6, 100 ul antibody sample (second well), HRP-Protein A
VLP-hCLDN6 (human) [3] = molecular target: T1, VLP-hCLDN6 (human); assay: ELISA, coated VLP-hCLDN6, 10 ul antibody sample (second well), HRP-Protein A
VLP-hCLDN6 (human) [4] = molecular target: T1, VLP-hCLDN6 (human); assay: ELISA, coated VLP-hCLDN6, 10 ul antibody sample, HRP-Protein A

Row | Binder | OD450 (VLP-hCLDN6 (human) [1]) | OD450 (VLP-hCLDN6 (human) [2]) | OD450 (VLP-hCLDN6 (human) [3]) | OD450 (VLP-hCLDN6 (human) [4])
1 | humanized antibody hAb-6 (antibody, V domains shown) VH: EVKLVESGGGLVKPGGSLRLSCAASGFTFNSYTMSWVRQAPGKRLEWVVTISSGGGRTYYPDSVKGRFTISRDNAKNTLYLQMSSLRAEDTAVYYCIRGDYRYDGFAYWGQGTLVTVSS VL: DIQMTQSPSSLSASVGDRVTITCRASENIDSYLAWYQQKPGKSPQLLVYASTLLQDGVPSRFSGSRSGTDFTLTISSLQPEDVATYYCQHYYSIPYTFGSGTKLEIK | 1.55 | 1.61 | 1.04 | 0.89
2 | humanized antibody hAb-9 (antibody, V domains shown) VH: EVKLVESGGGLVKPGGSLRLSCAASGFTFNSYTMSWVRQAPGKRLEWVVTISSGGGRTYYPDSVKGRFTISRDNAKNTLYLQMSSLRAEDTAVYYCIRGDYRYDGFAYWGQGTLVTVSS VL: DIQMTQSPSSLSASVGDRVTITCRASENIDSYLAWYQQKPGKSPQLLVYASTLLVDGVPSRFSGSRSGTQFSLTISSLQPEDVARYYCQHYYSIPYTFGSGTKLEIK | 1.84 | 1.94 | 1.57 | 1.71
3 | humanized antibody hAb-10 (antibody, V domains shown) VH: EVKLVESGGGLVKPGGSLRLSCAASGFTFNSYTMSWVRQTPAKRLEWVVTISSGGGRTYYPDSVKGRFTISRDNAKNTLYLQMSSLRAEDTAVYYCIRGDYRYDGFAYWGQGTLVTVSS VL: DIQMTQSPSSLSASVGDRVTITCRASENIDSYLAWYQQKPGKSPQLLVYASTLLQDGVPSRFSGSRSGTDFTLTISSLQPEDVATYYCQHYYSIPYTFGSGTKLEIK | 1.5 | 1.51 | 1.13 | 1.18
4 | humanized antibody hAb-7 (antibody, V domains shown) VH: EVKLVESGGGLVKPGGSLRLSCAASGFTFNSYTMSWVRQAPGKRLEWVVTISSGGGRTYYPDSVKGRFTISRDNAKNTLYLQMSSLRAEDTAVYYCIRGDYRYDGFAYWGQGTLVTVSS VL: DIQMTQSPSSLSASVGDRVTITCRASENIDSYLAWYQQKPGKSPQLLVYASTLLQDGVPSRFSGSRSGTQFTLTISSLQPEDVARYYCQHYYSIPYTFGSGTKLEIK | 1.73 | 1.91 | 1.46 | 1.37
5 | humanized antibody hAb-12 (antibody, V domains shown) VH: EVKLVESGGGLVKPGGSLRLSCAASGFTFNSYTMSWVRQTPAKRLEWVVTISSGGGRTYYPDSVKGRFTISRDNAKNTLYLQMSSLRAEDTAVYYCIRGDYRYDGFAYWGQGTLVTVSS VL: DIQMTQSPSSLSASVGDRVTITCRASENIDSYLAWYQQKPGKSPQLLVYASTLLQDGVPSRFSGSRSGTQFTLTISSLQPEDFATYYCQHYYSIPYTFGSGTKLEIK | 1.76 | 1.67 | 1.4 | 1.36
6 | humanized antibody hAb-11 (antibody, V domains shown) VH: EVKLVESGGGLVKPGGSLRLSCAASGFTFNSYTMSWVRQTPAKRLEWVVTISSGGGRTYYPDSVKGRFTISRDNAKNTLYLQMSSLRAEDTAVYYCIRGDYRYDGFAYWGQGTLVTVSS VL: DIQMTQSPSSLSASVGDRVTITCRASENIDSYLAWYQQKPGKSPQLLVYASTLLQDGVPSRFSGSRSGTQFTLTISSLQPEDVARYYCQHYYSIPYTFGSGTKLEIK | 1.81 | 1.8 | 1.54 | 1.41
7 | humanized antibody hAb-8 (antibody, V domains shown) VH: EVKLVESGGGLVKPGGSLRLSCAASGFTFNSYTMSWVRQAPGKRLEWVVTISSGGGRTYYPDSVKGRFTISRDNAKNTLYLQMSSLRAEDTAVYYCIRGDYRYDGFAYWGQGTLVTVSS VL: DIQMTQSPSSLSASVGDRVTITCRASENIDSYLAWYQQKPGKSPQLLVYASTLLQDGVPSRFSGSRSGTQFTLTISSLQPEDFATYYCQHYYSIPYTFGSGTKLEIK | 1.84 | 1.88 | 1.22 | 1.27
